From US20100204445A1 come the findings set out here.

Substitutions are numbered along the chain they refer to. In names and notes the source's numbering stands. Ends that are not written are not given here.

B1: recombinant JNK3 of which an L16T/I49T-substituted dockerin polypeptide was fused at the C-terminal (protein, not shown: large carriers; small tags and cut ends)
chain: MGLKGDVNNDGAIDATDIAALKKAILTQSTSNINLTNADMNNDGNIDATDFAQLKVKLLN
B2: recombinant JNK3 with an I49T-substituted dockerin polypeptide fused at the C-terminal (protein, not shown: large carriers; small tags and cut ends)
chain: B1 chain with T16L
B3: recombinant JNK3 of which a wild-type dockerin was fused at the C-terminal (protein, not shown: large carriers; small tags and cut ends)
chain: B1 chain with T16L, T49I
B4: recombinant JNK3 of which a wild-type dockerin was fused at the N-terminal (protein, not shown: large carriers; small tags and cut ends)
chain: B1 chain with T16L, T49I
modifications: not fully specified (C-terminus)
B5: recombinant JNK3 of which an I49G-substituted dockerin polypeptide is fused at the N-terminal (protein, not shown: large carriers; small tags and cut ends)
chain: B1 chain with T16L, T49G
B6: recombinant JNK3 of which an I49V-substituted dockerin polypeptide is fused at the N-terminal (protein, not shown: large carriers; small tags and cut ends)
chain: B1 chain with T16L, T49V
B7: recombinant JNK3 of which an I49S-substituted dockerin polypeptide is fused at the N-terminal (protein, not shown: large carriers; small tags and cut ends)
chain: B1 chain with T16L, T49S
B8: recombinant JNK3 of which an I49T-substituted dockerin polypeptide is fused at the N-terminal (protein, not shown: large carriers; small tags and cut ends)
chain: B1 chain with T16L
B9: recombinant JNK3 of which an L16T/I49T-substituted dockerin polypeptide is fused at the N-terminal (protein, not shown: large carriers; small tags and cut ends)
chain: B1 chain
B10: recombinant JNK3 of which an I49N-substituted dockerin polypeptide was fused at the N-terminal (protein, not shown: large carriers; small tags and cut ends)
chain: B1 chain with T16L, T49N
B11: recombinant fused protein in which a dockerin polypeptide with the 48th amino acid alanine (A) substituted with serine (S) was fused at the N-terminal of … (protein, not shown: large carriers; small tags and cut ends)
chain: B1 chain with T16L, A48S, T49I
modifications: not fully specified (C-terminus)

The first test has as its target recombinant cohesin (CipA of Clostridium josui, BAA32429) (Clostridium josui). In words: batch elution of C-terminal fusion from cohesin carrier with 5 mM EGTA at 4 C, SDS-PAGE densitometry, 360 min set to 100.
Turning to B1, the rate of eluted recombinant protein (%) at 5 min worked out at 55.7%, the rate of eluted recombinant protein (%) at 30 min is 100%, the rate of eluted recombinant protein (%) at 60 min came to 100% and the rate of eluted recombinant protein (%) at 360 min worked out at 100%.

In the case of B2, the rate of eluted recombinant protein (%) at 5 min came out at 83.1%, the rate of eluted recombinant protein (%) at 30 min was found to be 100%, the rate of eluted recombinant protein (%) at 60 min is 100% and the rate of eluted recombinant protein (%) at 360 min is 100%.

For B3, the rate of eluted recombinant protein (%) at 5 min is 1.5%, the rate of eluted recombinant protein (%) at 30 min came out at 10.5%, the rate of eluted recombinant protein (%) at 60 min amounted to 20.9% and the rate of eluted recombinant protein (%) at 360 min was determined as 100%.

The target is the same in a further test. As to the kind of experiment: SPR (Biacore T-100), fusion captured via anti-JNK3 antibody on Protein A chip, cohesin as analyte, +Ca2+ (1 mM CaCl2), no EGTA. For orientation: In SPR one partner is held on a chip, and binding of the other changes the refractive index at the surface.
With B4, the Kd is 6.5 nM, the off-rate (koff) came out at 0.0053 s⁻¹ and the kon came out at 810000 M⁻¹ s⁻¹.

In the case of B5, the Kd is 2.2 nM, the koff was determined as 0.0066 s⁻¹ and the kon came to 3e+06 M⁻¹ s⁻¹.

On to B6, for which the Kd is 7.6 nM, the koff was 0.0033 s⁻¹ and the kon came out at 430000 M⁻¹ s⁻¹.

B7: the Kd was 4.5 nM, the off-rate (koff) stood at 0.0045 s⁻¹ and the kon is 1e+06 M⁻¹ s⁻¹.

For the molecule B8, the Kd was found to be 3.8 nM, the koff turned out to be 0.006 s⁻¹ and the kon amounted to 1.6e+06 M⁻¹ s⁻¹.

Consider B9, for which the Kd turned out to be 3.2 nM, the koff was 0.015 s⁻¹ and the kon was found to be 4.9e+06 M⁻¹ s⁻¹.

Regarding B10, the Kd stood at 3.7 nM, the koff was 0.005 s⁻¹ and the kon was found to be 1.3e+06 M⁻¹ s⁻¹.

Another test has the same target. As to the kind of experiment: SPR as in Example 7, under the action of a chelating agent.
Turning to B11, the Kd worked out at 5.2 nM.

The target is the same in another test. As to the kind of experiment: batch elution of N-terminal fusion from cohesin carrier with 5 mM EGTA at 4 C, SDS-PAGE densitometry, 360 min set to 100.
Take B4: the rate of eluted recombinant protein (%) at 5 min worked out at 11.5%, the rate of eluted recombinant protein (%) at 30 min worked out at 28.8%, the rate of eluted recombinant protein (%) at 60 min came out at 39.6% and the rate of eluted recombinant protein (%) at 360 min is 100%.

For the molecule B5, the rate of eluted recombinant protein (%) at 5 min came to 100%, the rate of eluted recombinant protein (%) at 30 min amounted to 100%, the rate of eluted recombinant protein (%) at 60 min was 100% and the rate of eluted recombinant protein (%) at 360 min came to 100%.

As for B6, the rate of eluted recombinant protein (%) at 5 min turned out to be 25.3%, the rate of eluted recombinant protein (%) at 30 min is 53.3%, the rate of eluted recombinant protein (%) at 60 min was determined as 68.2% and the rate of eluted recombinant protein (%) at 360 min was found to be 100%.

On to B7, for which the rate of eluted recombinant protein (%) at 5 min turned out to be 74.7%, the rate of eluted recombinant protein (%) at 30 min worked out at 100%, the rate of eluted recombinant protein (%) at 60 min turned out to be 100% and the rate of eluted recombinant protein (%) at 360 min came out at 100%.

With B8, the rate of eluted recombinant protein (%) at 5 min was determined as 66.5%, the rate of eluted recombinant protein (%) at 30 min came out at 100%, the rate of eluted recombinant protein (%) at 60 min worked out at 100% and the rate of eluted recombinant protein (%) at 360 min was 100%.

With B9, the rate of eluted recombinant protein (%) at 5 min was 55.2%, the rate of eluted recombinant protein (%) at 30 min worked out at 100%, the rate of eluted recombinant protein (%) at 60 min was 100% and the rate of eluted recombinant protein (%) at 360 min is 100%.

Turning to B10, the rate of eluted recombinant protein (%) at 5 min was found to be 65.9%, the rate of eluted recombinant protein (%) at 30 min came out at 94.1%, the rate of eluted recombinant protein (%) at 60 min was 100% and the rate of eluted recombinant protein (%) at 360 min came to 100%.

For the next test the target is unchanged. As to the kind of experiment: SPR (Biacore T-100), same format, 5 mM EGTA in running buffer.
B4: the Kd was found to be 3.9 nM, the koff is 0.0079 s⁻¹ and the kon amounted to 2e+06 M⁻¹ s⁻¹.

As to B5, the Kd was 170 nM, the koff came out at 0.05 s⁻¹ and the kon is 300000 M⁻¹ s⁻¹.

As for B6, the Kd is 8.1 nM, the koff came out at 0.011 s⁻¹ and the kon came out at 1.4e+06 M⁻¹ s⁻¹.

On to B7, for which the Kd was determined as 67 nM, the koff was 0.048 s⁻¹ and the kon is 710000 M⁻¹ s⁻¹.

For the molecule B8, the Kd is 19 nM, the koff was 0.023 s⁻¹ and the kon stood at 1.2e+06 M⁻¹ s⁻¹.

With B9, the Kd was 12 nM, the off-rate constant (koff) worked out at 0.029 s⁻¹ and the on-rate (kon) was 250000 M⁻¹ s⁻¹.

In the case of B10, the Kd came to 56 nM, the off-rate constant (koff) turned out to be 0.089 s⁻¹ and the kon stood at 1.6e+06 M⁻¹ s⁻¹.

The Kd is the concentration at which binding is half-saturated. As a reminder, the koff is the first-order rate constant of dissociation. Broadly, the kon is a measure of how fast the partners come together.
